Measurements as given in article PMC7033311, “The Eaf3 chromodomain acts as a pH sensor for gene expression by altering its binding affinity for histone methylated-lysine residues” (Bioscience Reports, 2020).
Where no end group is shown, it is not given here. [ ]: non-standard residue; d: D form. The star is where a group is joined. MTSL = spin label, CC1(C)C=C(CS*)C(C)(C)N1[O]; Lys(Me3) = C[N+](C)(C)CCCC[C@H](N)C(=O)O

T1: Eaf3 CD (residues 1-120) G19A (S. cerevisiae, UniProt Q12432 1-120, G19A)
T1 construct: Eaf3 chromodomain (CD), budding yeast (S. cerevisiae), residues 1-120, G19A; 15N-labelled for the NMR experiments; source: E. coli BL21(DE3)pLysS, purified (Ni-NTA, thrombin, Ni-NTA flow-through, Superdex75)
T1 sequence (looked up): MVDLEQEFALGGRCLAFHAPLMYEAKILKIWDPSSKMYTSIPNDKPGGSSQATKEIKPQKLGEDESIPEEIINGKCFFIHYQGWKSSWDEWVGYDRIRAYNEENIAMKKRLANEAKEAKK

T2: Eaf3 CD (residues 1-120) Q82A (S. cerevisiae, UniProt Q12432 1-120, Q82A)
T2 construct: Eaf3 chromodomain (CD), budding yeast (S. cerevisiae), residues 1-120, Q82A; 15N-labelled for the NMR experiments; source: E. coli BL21(DE3)pLysS, purified (Ni-NTA, thrombin, Ni-NTA flow-through, Superdex75)
T2 sequence (looked up): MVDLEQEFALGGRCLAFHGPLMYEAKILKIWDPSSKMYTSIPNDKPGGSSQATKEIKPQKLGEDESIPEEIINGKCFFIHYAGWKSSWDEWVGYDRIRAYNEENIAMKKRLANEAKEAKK

T3: Eaf3 CD (residues 1-120) W84Y (S. cerevisiae, UniProt Q12432 1-120, W84Y)
T3 construct: Eaf3 chromodomain (CD), budding yeast (S. cerevisiae), residues 1-120, W84Y; 15N-labelled for the NMR experiments; source: E. coli BL21(DE3)pLysS, purified (Ni-NTA, thrombin, Ni-NTA flow-through, Superdex75)
T3 sequence (looked up): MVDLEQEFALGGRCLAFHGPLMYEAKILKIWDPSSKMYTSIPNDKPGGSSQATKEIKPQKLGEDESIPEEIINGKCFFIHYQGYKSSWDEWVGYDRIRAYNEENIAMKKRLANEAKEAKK

T4: Eaf3 chromodomain (Eaf3 CD, residues 1-120), wild type (S. cerevisiae, UniProt Q12432 1-120)
T4 construct: Eaf3 chromodomain (CD), budding yeast (S. cerevisiae), residues 1-120; 15N-labelled for the NMR experiments; expressed from pET15b; also called WT Eaf3 CD; source: E. coli BL21(DE3)pLysS, purified (Ni-NTA, thrombin, Ni-NTA flow-through, Superdex75)
T4 sequence (looked up): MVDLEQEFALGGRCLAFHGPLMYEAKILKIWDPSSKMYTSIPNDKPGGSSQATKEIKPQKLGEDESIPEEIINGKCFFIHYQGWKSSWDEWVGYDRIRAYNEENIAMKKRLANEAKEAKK

T5: Eaf3 CD (residues 1-120) H18D (S. cerevisiae, UniProt Q12432 1-120, H18D)
T5 construct: Eaf3 chromodomain (CD), budding yeast (S. cerevisiae), residues 1-120, H18D; 15N-labelled for the NMR experiments; also called H18D Eaf3 CD; source: E. coli BL21(DE3)pLysS, purified (Ni-NTA, thrombin, Ni-NTA flow-through, Superdex75)
T5 sequence (looked up): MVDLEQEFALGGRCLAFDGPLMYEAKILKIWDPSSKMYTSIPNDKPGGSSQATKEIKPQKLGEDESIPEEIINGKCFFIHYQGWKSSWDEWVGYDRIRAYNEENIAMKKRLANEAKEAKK

B1: histone H3 peptide H3K4me3, titration peptide (peptide)
chain: ART[Lys(Me3)]QTARKSTGGKAPRY
B2: MTSL spin-labelled H3K36me3 peptide (residues 32-41) with a Gly33Cys substitution (peptide, UniProt P61830 33-42, looked up)
peptide: TC(MTSL)GVK(me3)KPHRY
notes: histone H3 residues 32-41 with Gly33Cys; also called MTSL-H3K36me3 peptide; paramagnetically labeled H3K36me3 peptide; source: synthetic peptide (SIGMA Genosys), labelled with MTSL

Columns and labels:
Conditions in all cases: both partners purified
[1] = biological target: T1, Eaf3 CD (residues 1-120) G19A; experiment: NMR titration; 0.1 mM 15N-labelled WT or mutant Eaf3 CD titrated with unlabelled histone H3 peptide up to 1:88; 10 mM potassium phosphate pH 6.8, 20 mM NaCl, 5 mM DTT, 25°C; Kd by nonlinear fit of chemical shift change
[2] = biological target: T2, Eaf3 CD (residues 1-120) Q82A; experiment: as above
[3] = biological target: T3, Eaf3 CD (residues 1-120) W84Y; experiment: as above
[4] = biological target: T4, Eaf3 chromodomain (Eaf3 CD, residues …); experiment: as above
[5] = biological target: T5, Eaf3 CD (residues 1-120) H18D; experiment: paramagnetic relaxation enhancement (NMR); MTSL-H3K36me3 peptide added to 0.3 mM 15N-labelled Eaf3 CD at 1:1; 10 mM potassium phosphate pH 6.8, 20 mM NaCl; paramagnetic against ascorbate-reduced sample
[6] = biological target: T4, Eaf3 chromodomain (Eaf3 CD, residues …); experiment: as above

Binder | Kd [1] [µM] | Kd [2] [µM] | Kd [3] [µM] | Kd [4] [µM] | binding result [5] | binding result [6]
B1 | 800 ± 70 | 2240 ± 280 | 1590 ± 280 | 2900 ± 10 | – | –
B2 | – | – | – | – | binds | binds
